# In article PMC3039359:
# T1: Rrp47 (Saccharomyces cerevisiae, UniProt P38801 1-184)
# T1 sequence: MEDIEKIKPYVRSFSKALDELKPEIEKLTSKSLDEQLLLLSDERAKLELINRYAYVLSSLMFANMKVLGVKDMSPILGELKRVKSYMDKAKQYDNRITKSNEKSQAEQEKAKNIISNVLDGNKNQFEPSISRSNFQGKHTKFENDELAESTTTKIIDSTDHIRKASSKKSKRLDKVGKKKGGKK
# T2: Rrp47 ΔC (Saccharomyces cerevisiae, UniProt P38801 1-120, del121-184)
# T2 sequence: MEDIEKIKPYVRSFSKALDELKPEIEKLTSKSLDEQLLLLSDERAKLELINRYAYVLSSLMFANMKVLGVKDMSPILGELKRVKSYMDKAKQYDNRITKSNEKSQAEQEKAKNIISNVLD
# B1: SL-AU RNA (structured_RNA)
# RNA: GGGUUUCCUUCUCAAACAUUCUGUUUGGUAGUGAGUAAUUAAAAAUGAAUU
# What was measured:
# Rrp47 = molecular target: T1, Rrp47; experiment: filter binding
# Rrp47 ΔC = molecular target: T2, Rrp47 ΔC; experiment: filter binding
binder,measurement,setting,value
B1,Kd,Rrp47,~1000 nM
same,binding result,Rrp47 ΔC,no binding
